In paper PMC12517307:

Biological target: p53 (UniProt P04637)
Sequence (P04637 whole entry): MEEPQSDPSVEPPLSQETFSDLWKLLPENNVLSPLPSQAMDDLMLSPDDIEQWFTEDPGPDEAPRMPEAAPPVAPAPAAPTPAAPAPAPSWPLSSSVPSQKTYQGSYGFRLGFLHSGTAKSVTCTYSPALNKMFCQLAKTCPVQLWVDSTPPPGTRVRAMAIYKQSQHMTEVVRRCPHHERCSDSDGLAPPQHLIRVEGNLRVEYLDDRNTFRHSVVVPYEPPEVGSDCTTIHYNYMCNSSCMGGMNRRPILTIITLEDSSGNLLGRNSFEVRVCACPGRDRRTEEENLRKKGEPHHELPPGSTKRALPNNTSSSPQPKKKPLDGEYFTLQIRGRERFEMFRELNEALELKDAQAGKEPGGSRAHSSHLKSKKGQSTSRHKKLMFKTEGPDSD

p300 acetyl transferase, Q09472 1-2414
p53 acetylation (IP with anti-p53, blot with anti-acetyl-lysine) in 3T3-L1 adipocytes overexpressing p53 and p300: reduction by NDN against control adipocytes; reversed by further addition of p300: 51%
